The text below walks through data of paper PMC1933402 (The EMBO Journal, 2007).

The target in data set [1] is T1, His-tagged WT APPL1 (5−419) (human, UniProt Q9UKG1 5-419).
T1 sequence (looked up): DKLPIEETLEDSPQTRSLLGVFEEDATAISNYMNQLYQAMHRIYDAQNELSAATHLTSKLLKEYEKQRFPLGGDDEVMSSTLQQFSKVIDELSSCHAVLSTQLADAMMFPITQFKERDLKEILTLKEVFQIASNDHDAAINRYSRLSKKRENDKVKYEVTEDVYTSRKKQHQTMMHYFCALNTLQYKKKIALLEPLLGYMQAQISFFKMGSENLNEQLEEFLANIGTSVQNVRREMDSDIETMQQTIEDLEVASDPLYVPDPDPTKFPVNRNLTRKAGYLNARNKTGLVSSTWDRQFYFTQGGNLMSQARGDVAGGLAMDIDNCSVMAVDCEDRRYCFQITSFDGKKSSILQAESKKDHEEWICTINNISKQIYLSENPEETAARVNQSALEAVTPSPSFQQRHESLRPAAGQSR
Briefly: SPR. On the technique in general: SPR reads the build-up and loss of mass on a sensor chip optically.

Data set [2] deals with the molecule itself. Briefly: AUC.

For orientation: Kd means a measure of binding affinity in units of concentration. A word on the koff: it is a measure of how fast the partners let go of each other. As a reminder, the kon is the second-order rate constant of association. A higher kon goes with fast association.

B1: full-length Rab5-Q79L coupled to the SPR biosensor chip (natural protein, human, UniProt P20339-1 1-215, looked up)
chain: MASRGATRPNGPNTGNKICQFKLVLLGESAVGKSSLVLRFVKGQFHEFQESTIGAAFLTQTVCLDDTTVKFEIWDTAGLERYHSLAPMYYRGAQAAIVVYDITNEESFARAKNWVKELQRQASPNIVIALSGNKADLANKRAVDFQEAQSYADDNSLLFMETSAKTSMNVNEIFMAIAKKLPKNEPQNPGANSARGRGVDLTEPTQPTRNQCCSN
In data set [1], B1 showed a Kd of 0.9 ± 0.7 µM, a koff of 0.0012 s⁻¹ and a kon of 1300 M⁻¹ s⁻¹.

B2: APPL1 BAR domain (residues 5−265), His tag removed (domain or fragment, human)
chain: GSHMDKLPIEETLEDSPQTRSLLGVFEEDATAISNYMNQLYQAMHRIYDAQNELSAATHLTSKLLKEYEKQRFPLGGDDEVMSSTLQQFSKVIDELSSCHAVLSTQLADAMMFPITQFKERDLKEILTLKEVFQIASNDHDAAINRYSRLSKKRENDKVKYEVTEDVYTSRKKQHQTMMHYFCALNTLQYKKKIALLEPLLGYMQAQISFFKMGSENLNEQLEEFLANIGTSVQNVRREMDSDIETMQQTIEDLEVASDPLYVPD
Molecule B2 registered a dissociation constant Kd in data set [2] of 0.13 µM.
